Test results: PMC10399232

Target: eIF4E (mouse (endogenous in cerebellum)) (UniProt P63073)
Assay: pull-down; m7GTP beads (30 ul) incubated with 500 ug mouse cerebellar lysate for 1 h at 4 C; lysis buffer 150 mM NaCl, 10 mM MgCl2, 30 mM tris pH 8.0, 1 mM DTT, 1.5% Triton X-100; washed three times in 100 mM KCl, 50 mM tris pH 7.4, 5 mM MgCl2, 0.5% Triton X-100; eIF4E and eIF4G blotted; eIF4G/eIF4E ratio normalized to the WT mean; CYFIP1 OE and WT mice

Sequence of UniProt P63073 (P63073 whole entry): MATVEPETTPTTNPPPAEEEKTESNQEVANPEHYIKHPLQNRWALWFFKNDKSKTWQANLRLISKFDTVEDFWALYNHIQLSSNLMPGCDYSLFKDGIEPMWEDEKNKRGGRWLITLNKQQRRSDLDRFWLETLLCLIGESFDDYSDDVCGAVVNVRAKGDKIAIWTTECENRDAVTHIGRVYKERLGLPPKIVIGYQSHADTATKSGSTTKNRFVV

eIF4G (natural protein)
eIF4G/eIF4E binding ratio in CYFIP1 OE mice, normalized to WT mean (fold of WT mean): 1.68
